Experiment [1] has as its target T1, human TrkB monomer (His ECD) (human, UniProt Q16620 32-430).
T1 construct: extracellular domain; amine-coupled to the chip
In words: Biacore, 37 C. An outline of the steps: (§1)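 Monovalent Fab fragments were tested at 37° C by surface plasmon resonance on a Biacore instrument, against TrkB extracellular-domain monomer amine-coupled to the chip at low capacity. Fabs were injected low to high as a 3-fold serial dilution from 100 nM for 84 sec, with a 10 minute dissociation after the top sample. The dissociation half-life was calculated from koff, which was fitted to a Langmuir binding model in BIAevaluation. The formula used was T1/2 = Log 2/koff.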

Experiment [2] concerns the target T2, rat TrkB monomer (His ECD) (rat, UniProt Q63604 32-429).
T2 construct: extracellular domain; amine-coupled to the chip
In words: SPR (Biacore), TrkB His ECD monomer on chip, 37 C. How it is done: (§2) TrkB monomers (H is ECD) of human, mouse, and rat were amine-coupled to the chip at levels of 2008, 1008, and 889RU respectively in an effort to give low capacity surfaces suitable for kinetic analysis. Fabs (C1, C2, A2, 4A6, and 4B12) were diluted to 100 nM (according to their labeled concentrations by NanoDrop, using 1AU=0.6 mg/mL) to give the top concentration of a 3 fold serial dilution. Samples were injected from low to high concentration as a titration series for 84 sec, allowing a 10 minute dissociation phase for the 100 nM sample. […] The full-length mouse anti-TrkB antibody 38B8-IgG was used as a (+) control to confirm that the chip was active.
(§3) The concentrations of the Fab proteins are determined by ELISA and/or SDS-PAGE electrophoresis using a Fab of known concentration (as determined by amino acid analysis) as a standard. Kinetic association rates (kₒₙ) and dissociation rates (koff) (generally measured at 25° C. or 37° C.) are obtained simultaneously by fitting the data to a 1:1 Langmuir binding model (Karlsson, R. Roos, H. Fagerstam, L. Petersson, B., 1994 Methods Enzymology 6:99-110) using the BIAevaluation program. Equilibrium dissociation constant (KD) values are calculated as koff/kₒₙ.
On the technique in general: SPR reads the build-up and loss of mass on a sensor chip optically.

For experiment [3], the target named is T3, mouse TrkB monomer (His ECD) (mouse, UniProt P15209 32-429).
T3 construct: extracellular domain; amine-coupled to the chip
Description: SPR (Biacore), TrkB His ECD monomer on chip, 37 C. As for the experimental part:
as §2, §3

In experiment [4] the target is T1, human TrkB monomer (His ECD). Description: SPR (Biacore), TrkB His ECD monomer on chip, 37 C. As for the experimental part: as §2, §3
Experiment [5] has as its target T4, TrkB (Homo sapiens (Human), UniProt Q16620 32-430). In words: koff of Fab at 37 C; T1/2=Log2/koff. An outline of the steps: as §1
In experiment [6] the target is T4, TrkB. In words: koff of Fab at 25 C; T1/2=Log2/koff. The gist of the method:
(§4)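 Monovalent Fab fragments were tested at 25° C by surface plasmon resonance on a Biacore instrument, against TrkB extracellular-domain monomer amine-coupled to the chip at low capacity. Fabs were injected low to high as a 3-fold serial dilution from 100 nM for 84 sec, with a 10 minute dissociation after the top sample. The dissociation half-life was calculated from koff, which was fitted to a Langmuir binding model in BIAevaluation. The formula used was T1/2 = Log 2/koff.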

In experiment [7] the target is T2, rat TrkB monomer (His ECD). Description: SPR (Biacore), Fab over amine-coupled TrkB His ECD monomer, 25 C. As for the experimental part: as §2, §3
In experiment [8] the target is T3, mouse TrkB monomer (His ECD). The description is as above. How it is done:
as §2, §3

Experiment [9] deals with T1, human TrkB monomer (His ECD). Described as above. How it is done:
as §2, §3

Experiment [10] shares this target. In words: Biacore, 25 C. An outline of the steps:
as §4

Residue numbers refer to the chain shown, from its start.

For orientation: Kd means the free concentration of one partner at which half of the binding sites on the other are occupied at equilibrium, for simple one-to-one binding. Low readings indicate higher affinity, high ones lower affinity. The term koff denotes a measure of how fast the partners let go of each other. Read a high koff as a short-lived complex. One may read the kon as a measure of how fast the partners come together. Higher therefore signals faster complex formation.

T1 sequence (Q16620 32-430): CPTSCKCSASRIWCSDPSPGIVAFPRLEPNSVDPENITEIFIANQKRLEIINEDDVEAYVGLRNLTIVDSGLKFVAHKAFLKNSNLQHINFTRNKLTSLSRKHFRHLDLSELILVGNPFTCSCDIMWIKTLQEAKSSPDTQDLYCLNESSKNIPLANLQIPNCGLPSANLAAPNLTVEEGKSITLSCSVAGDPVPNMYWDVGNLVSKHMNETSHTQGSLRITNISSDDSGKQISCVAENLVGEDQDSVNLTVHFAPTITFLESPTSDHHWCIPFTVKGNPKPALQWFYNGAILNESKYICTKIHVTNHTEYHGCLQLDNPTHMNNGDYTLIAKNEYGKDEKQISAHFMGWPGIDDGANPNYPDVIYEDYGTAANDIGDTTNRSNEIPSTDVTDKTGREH
T4 sequence (Q16620 32-430 limits assumed): as the sequence (Q16620 32-430) above
T2 sequence (Q63604 32-429): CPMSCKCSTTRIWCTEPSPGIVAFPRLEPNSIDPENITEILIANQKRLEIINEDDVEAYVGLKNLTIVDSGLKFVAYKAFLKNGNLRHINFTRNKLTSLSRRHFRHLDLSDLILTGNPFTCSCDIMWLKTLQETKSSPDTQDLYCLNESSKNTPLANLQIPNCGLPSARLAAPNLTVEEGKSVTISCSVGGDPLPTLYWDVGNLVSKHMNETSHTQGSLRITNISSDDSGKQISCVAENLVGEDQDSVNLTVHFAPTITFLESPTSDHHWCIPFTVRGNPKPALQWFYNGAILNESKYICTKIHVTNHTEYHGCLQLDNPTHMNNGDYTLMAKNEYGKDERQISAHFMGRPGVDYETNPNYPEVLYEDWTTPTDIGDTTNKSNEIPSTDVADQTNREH
T3 sequence (P15209 32-429): as the sequence (Q63604 32-429) above, with M3T, T9S, T10A, I32V, K63R, G84S, T153M, I185L, T394S counted along it

B1: RN1026A (Fab, V domains shown)
VH: QVQLVQSGAEVKKPGASVKVSCKASGYTFTNYDIIWVRQAPGQGLEWMGYINPYNRRREYNEKFKGRVTMTRDTSTSTVYMELSSLRSEDTAVYYCARLLKYRRFRYYAIDYWGQGTTVTVSS
VL: DIQMTQSPSSLSASVGDRVTITCRASENVYSNLAWYQQKPGKAPKLLIYAASNLQSGVPSRFSGSGSGTDFTFTISSLQPEDIATYYCQHFWGSPFTFGQGTKLEIK
notes: Fab
As to B1, the T1/2 in experiment [1] is 4.53 min; with TrkB [5] it was 4.5 min. The Kd in experiment [2] is 4 nM; in experiment [3], 2.27 nM; in experiment [4] it was 1.27 nM. Also, the koff in [2] worked out at 0.00924 s⁻¹; in [3], 0.00396 s⁻¹; in [4] it was 0.00255 s⁻¹. Besides, the kon in [2] was 1.41e+06 M⁻¹ s⁻¹; in experiment [3] it was 1.75e+06 M⁻¹ s⁻¹; in [4] it was 2e+06 M⁻¹ s⁻¹.

B2: 4A6 (Fab, V domains shown)
VH: B1 VH
VL: B1 VL with R24H, F71Y
notes: Fab
Consider B2, for which the T1/2 in the experiment with TrkB [6] came out at 13.2 min. The kon in experiment [2] turned out to be 1.36e+06 M⁻¹ s⁻¹; in [3], 1.76e+06 M⁻¹ s⁻¹; in experiment [4], 2.14e+06 M⁻¹ s⁻¹; in [7] it was 2.45e+06 M⁻¹ s⁻¹; in [8], 4.35e+06 M⁻¹ s⁻¹; in experiment [9] it was 3.89e+06 M⁻¹ s⁻¹. Further, the equilibrium dissociation constant (Kd) in [3] was found to be 0.37 nM; in experiment [4], 0.17 nM; in experiment [7] it was 0.27 nM; in [8], 0.02 nM; in [9], 0.18 nM. Also, the koff in experiment [3] worked out at 0.00066 s⁻¹; in experiment [4] it was 0.000372 s⁻¹; in experiment [7], 0.000666 s⁻¹; in [8], 9.24e-05 s⁻¹; in experiment [9] it was 0.000705 s⁻¹.

B3: C2 (Fab, V domains shown)
VH: B1 VH with R56D, R57G, R58T, E59K
VL: B1 VL with A25T, F71Y
notes: Fab
On to B3, for which the T1/2 (with TrkB [6]; in experiment [10]) was 2.9 min in each case. In addition, the Kd in experiment [7] was determined as 2.29 nM; in experiment [8], 1.44 nM; in experiment [9], 2.54 nM. The koff in [7] worked out at 0.00146 s⁻¹; in [8] it was 0.000734 s⁻¹; in experiment [9], 0.0014 s⁻¹. Also, the values for the kon in experiment [7], in experiment [8] and in [9] were 638000 M⁻¹ s⁻¹, 510000 M⁻¹ s⁻¹ and 552000 M⁻¹ s⁻¹, respectively.

B4: 4B12 (Fab, V domains shown)
VH: B1 VH with R56G
VL: B1 VL with N28P, L33V, F71Y
notes: Fab
On to B4, for which, in the experiment with TrkB [6], the T1/2 amounted to 12.8 min. Besides, the Kd in experiment [7] is 0.41 nM; in experiment [8] it was 0.06 nM; in experiment [9] it was 0.21 nM. The koff in [7] came out at 0.00081 s⁻¹; in [8], 0.000146 s⁻¹; in [9] it was 0.000532 s⁻¹. The kon in [7] is 1.99e+06 M⁻¹ s⁻¹; in [8], 2.38e+06 M⁻¹ s⁻¹; in [9], 2.5e+06 M⁻¹ s⁻¹.

B5: A2 (Fab, V domains shown)
VH: B1 VH with R56D, R57G, R58T, E59K
VL: B1 VL with F71Y, G93Y, F96W
notes: Fab
Molecule B5 had a T1/2 with TrkB [6] of 6 min. In experiment [7], this molecule had a Kd of 1.18 nM, a koff of 0.00152 s⁻¹ and an on-rate (kon) of 1.29e+06 M⁻¹ s⁻¹. In experiment [8], this molecule registered a Kd of 0.51 nM, a koff of 0.000636 s⁻¹ and a kon of 1.24e+06 M⁻¹ s⁻¹. Besides, in experiment [9], the Kd amounted to 1.08 nM, the off-rate constant (koff) worked out at 0.00145 s⁻¹ and the kon was 1.34e+06 M⁻¹ s⁻¹.

Source of the values: patent publication US20100196390A1 (RINAT NEUROSCIENCE, published 2010).
